# Results reported in PMC4254994 (PLoS ONE, 2014).
# Molecular target: the molecule itself
# Assay: SEC
protein,measurement,value
Bacterial proteasome activator Bpa (Rv3780) of Mycobacterium tuberculosis (natural protein) MVIGLSTGSDDDDVEVIGGVDPRLIAVQENDSDESSLTDLVEQPAKVMRIGTMIKQLLEEVRAAPLDEASRNRLRDIHATSIRELEDGLAPELREELDRLTLPFNEDAVPSDAELRIAQAQLVGWLEGLFHGIQTALFAQQMAARAQLQQMRQGALPPGVGKSGQHGHGTGQYL,stoichiometry N,~6
